Values of other authors, collected in PMC6530603.

Target: VP30 CTD (Zaire ebolavirus) (UniProt Q77DJ5)

Substance: Nucleoprotein NP C-terminal region peptide (from UniProt P18272)
- Kd: 5.7 µM
